One assay deals with D167N (HIV-1). Nature of the assay: gp120 capture ELISA. For orientation: An ELISA detects its analyte on a solid surface through an enzyme-linked reagent.
Another assay deals with D279A (HIV-1). Nature of the assay: gp120 capture ELISA.
A further assay has as its target D368A (HIV-1). The assay can be described thus: gp120 capture ELISA.
The next assay has as its target D457A (HIV-1). The assay can be described thus: gp120 capture ELISA.
In a further assay the target is D474A (HIV-1). Nature of the assay: gp120 capture ELISA.
Another assay addresses E370A (HIV-1). The assay can be described thus: gp120 capture ELISA.
A further assay deals with G366A (HIV-1). The assay can be described thus: gp120 capture ELISA.
In another assay the target is G367A (HIV-1). Nature of the assay: gp120 capture ELISA.
The target of a further assay is G471A (HIV-1). The assay can be described thus: gp120 capture ELISA.
The target in another assay is G472A (HIV-1). Nature of the assay: gp120 capture ELISA.
A further assay has as its target G473A (HIV-1). The assay can be described thus: gp120 capture ELISA.
Another assay concerns the target I371A (HIV-1). Nature of the assay: gp120 capture ELISA.
The next assay concerns the target I467A (HIV-1). Nature of the assay: gp120 capture ELISA.
In a further assay the target is K282A (HIV-1). Nature of the assay: gp120 capture ELISA.
The next assay deals with M373A (HIV-1). Nature of the assay: gp120 capture ELISA.
The target of another assay is M475A (HIV-1). The assay can be described thus: gp120 capture ELISA.
The next assay concerns the target N197T (HIV-1). The assay can be described thus: gp120 capture ELISA.
For the next assay, the target named is N262A (HIV-1). The assay can be described thus: gp120 capture ELISA.
In another assay the target is N280A (HIV-1). The assay can be described thus: gp120 capture ELISA.
A further assay concerns the target N332A (HIV-1). Nature of the assay: gp120 capture ELISA.
The target of a further assay is P369A (HIV-1). The assay can be described thus: gp120 capture ELISA.
The target of the next assay is R469A (HIV-1). Nature of the assay: gp120 capture ELISA.
In a further assay the target is R476A (HIV-1). Nature of the assay: gp120 capture ELISA.
For another assay, the target named is S365A (HIV-1). Nature of the assay: gp120 capture ELISA.
The next assay addresses T283A (HIV-1). The assay can be described thus: gp120 capture ELISA.
The target in the next assay is V372A (HIV-1). The assay can be described thus: gp120 capture ELISA.
In assay [1] the target is monomeric gp120^JRCSF (HIV-1 strain JRCSF) (UniProt P20871). Nature of the assay: gp120 capture ELISA.
In the next assay the target is CentrB, centromere B. Nature of the assay: Luminex AtheNA Multi-Lyte ANA test.
Chain of CentrB, centromere B (P07199 2-599): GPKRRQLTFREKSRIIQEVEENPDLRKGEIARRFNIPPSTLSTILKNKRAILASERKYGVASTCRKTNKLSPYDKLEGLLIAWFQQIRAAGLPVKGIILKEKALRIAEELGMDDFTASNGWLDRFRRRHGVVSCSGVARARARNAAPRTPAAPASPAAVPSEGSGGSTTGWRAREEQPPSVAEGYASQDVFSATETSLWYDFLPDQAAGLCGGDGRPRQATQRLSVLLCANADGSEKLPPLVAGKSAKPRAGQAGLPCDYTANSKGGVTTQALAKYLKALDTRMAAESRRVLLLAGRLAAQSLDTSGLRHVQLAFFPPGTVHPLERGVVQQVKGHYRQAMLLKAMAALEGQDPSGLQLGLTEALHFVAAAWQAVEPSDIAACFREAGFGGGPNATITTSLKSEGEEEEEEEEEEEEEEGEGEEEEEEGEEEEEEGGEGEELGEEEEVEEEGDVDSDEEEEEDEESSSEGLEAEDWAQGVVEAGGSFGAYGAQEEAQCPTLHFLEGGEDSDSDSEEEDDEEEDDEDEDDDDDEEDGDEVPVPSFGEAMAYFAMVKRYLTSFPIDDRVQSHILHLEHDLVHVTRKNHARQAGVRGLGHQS
Another assay concerns the target Histone. The assay can be described thus: Luminex AtheNA Multi-Lyte ANA test.
A further assay concerns the target Jo1 antigen. Nature of the assay: Luminex AtheNA Multi-Lyte ANA test.
The next assay has as its target RNP, ribonucleoprotein. Nature of the assay: Luminex AtheNA Multi-Lyte ANA test.
The target in assay [2] is SSA, Sjogren's syndrome antigen A. Nature of the assay: Luminex AtheNA Multi-Lyte ANA test.
The target of assay [3] is SSB, Sjogren syndrome antigen B (Homo sapiens (Human)) (UniProt P05455). Nature of the assay: Luminex AtheNA Multi-Lyte ANA test.
Chain of SSB, Sjogren syndrome antigen B (Homo sapiens (Human)) (P05455 whole entry): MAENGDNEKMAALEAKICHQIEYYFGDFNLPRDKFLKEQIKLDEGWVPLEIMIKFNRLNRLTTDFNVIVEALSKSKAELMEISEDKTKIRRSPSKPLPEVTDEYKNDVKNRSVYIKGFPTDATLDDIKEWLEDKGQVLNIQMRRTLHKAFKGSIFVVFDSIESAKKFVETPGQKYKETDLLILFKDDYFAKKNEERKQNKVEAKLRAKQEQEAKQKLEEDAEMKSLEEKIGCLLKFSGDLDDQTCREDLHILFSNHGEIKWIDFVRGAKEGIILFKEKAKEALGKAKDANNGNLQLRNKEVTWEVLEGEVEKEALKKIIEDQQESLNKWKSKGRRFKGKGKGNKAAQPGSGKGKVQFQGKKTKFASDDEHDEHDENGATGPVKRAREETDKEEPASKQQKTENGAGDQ
A further assay addresses Scl 70, scleroderma 70. The assay can be described thus: Luminex AtheNA Multi-Lyte ANA test.
In another assay the target is Sm, Smith antigen. Nature of the assay: Luminex AtheNA Multi-Lyte ANA test.
In assay [4] the target is CAAN.A2 (HIV-1).
Assay [5] has as its target 6631.V3.C10 (HIV-1).
For assay [6], the target named is 6631.V3.C10 (HIV-1). The source holds these as a separate data set.
For assay [7], the target named is gp120 of X2088 (HIV-1 strain X2088.c9).
Assay [8] deals with 6631.V3.C10 (HIV-1). This is another data set of the same source.
For assay [9], the target named is gp120 of X2088 (HIV-1 strain X2088.c9). This is another data set of the same source.
Assay [10] has as its target CAAN.A2 (HIV-1). This is another data set of the same source.

Our source for the Binding affinity relative to WT (%), Luminex reactivity (unit not given) and neutralisation IC50 values is patent US20180298083A1.

Read-outs that look alike come from different tables or passages of the source. Where only a bound is given, the exact number is not on record here.

As to 3BNC117 (antibody), the Binding affinity relative to WT (%) was determined as 95% in the assay with D167N (HIV-1); 0% with D279A (HIV-1); 16% with D368A (HIV-1); 84% with D457A (HIV-1); 38% in the assay with D474A (HIV-1); 31% with E370A (HIV-1). The Binding affinity relative to WT (%) with G366A (HIV-1) stood at 27%; with G367A (HIV-1), 25%; in the assay with G471A (HIV-1) it was 164%; in the assay with G472A (HIV-1), 56%; with G473A (HIV-1), 40%; with I371A (HIV-1), 40%. Further, the Binding affinity relative to WT (%) with I467A (HIV-1) was 87%; in the assay with K282A (HIV-1), 3%; with M373A (HIV-1), 133%; in the assay with M475A (HIV-1), 169%; in the assay with N197T (HIV-1), 101%; in the assay with N262A (HIV-1) it was 33%. The Binding affinity relative to WT (%) is 36% in the assay with N280A (HIV-1); 82% with N332A (HIV-1); 75% with P369A (HIV-1); 97% with R469A (HIV-1); 171% with R476A (HIV-1); 90% with S365A (HIV-1). The Binding affinity relative to WT (%) is 71% with T283A (HIV-1), 62% in the assay with V372A (HIV-1) and 100% in assay [1].
Regarding 4E10 (antibody), the Luminex reactivity (unit not given) was 3 with CentrB, centromere B; 9 in the assay with Histone; 146 with Jo1 antigen; 9 with RNP, ribonucleoprotein; 31 in assay [2]; 161 in [3]. The Luminex reactivity (unit not given) turned out to be 8 with Scl 70, scleroderma 70 and 6.6 with Sm, Smith antigen.
“12A21 heavy chain with N6 light chain (antibody)” showed a neutralisation IC50 in the assay with CAAN.A2 (HIV-1) [4] of 11 µg/mL.
In assay [1], “CD4-Ig (from UniProt P01730 26-203) (Fc fusion; other documents disagree on this pair)” gave a Binding affinity relative to WT (%) of 100%.
N6 GGG60-62AHS VRC27 (antibody) came in with a neutralisation IC50 with 6631.V3.C10 (HIV-1) [5] of 0.089 µg/mL.
Take “N6 heavy chain with 12A21 light chain (antibody)”: the neutralisation IC50 came to 3.11 µg/mL with 6631.V3.C10 (HIV-1) [6], 3.71 µg/mL with CAAN.A2 (HIV-1) [4] and 0.314 µg/mL in assay [7].
Take “N6 heavy chain with VRC01 light chain (antibody)”: the values for the neutralisation IC50 (with 6631.V3.C10 (HIV-1) [6]; with CAAN.A2 (HIV-1) [4]; in assay [7]) were 1.04 µg/mL, 0.211 µg/mL and greater than 50 µg/mL, respectively.
Taken in the same sequence, the figures for “N6 heavy chain with VRC27 light chain (antibody)” were 0.285 µg/mL, 0.278 µg/mL and greater than 50 µg/mL.
Consider N6 with CDRH1 of VRC01 (antibody), for which the neutralisation IC50 was greater than 50 µg/mL with 6631.V3.C10 (HIV-1) [8], greater than 50 µg/mL in the assay with T250-4 (HIV-1) and 2.08 µg/mL in assay [9].
In the assay with 6631.V3.C10 (HIV-1) [5], N6 with CDRH1 of VRC27 (antibody) had a neutralisation IC50 of 0.122 µg/mL.
Take N6 with CDRH3 of VRC01 (antibody): the neutralisation IC50 in the assay with T250-4 (HIV-1) came out at 4.52 µg/mL.
In the case of N6 with CDRL1 of VRC01 (antibody), the neutralisation IC50 (with 6631.V3.C10 (HIV-1) [8]; in assay [9]) was greater than 50 µg/mL each time.
With N6 with CDRL3 of VRC01 (antibody), the values for the neutralisation IC50 (in the assay with 6631.V3.C10 (HIV-1) [8]; in assay [9]) were 0.139 µg/mL and 0.125 µg/mL, respectively.
On to N6 with FRH3 of VRC01 (antibody), for which, in the assay with 6631.V3.C10 (HIV-1) [8], the neutralisation IC50 was determined as 0.152 µg/mL.
Consider N6 with FRL1 of VRC01 (antibody), for which the neutralisation IC50 with 6631.V3.C10 (HIV-1) [8] is 0.642 µg/mL; with CAAN.A2 (HIV-1) [10] it was 1.01 µg/mL; in assay [9], 1.14 µg/mL.
For N6 with FRL3 of VRC01 (antibody), the neutralisation IC50 (with 6631.V3.C10 (HIV-1) [8]; in assay [9]) was greater than 50 µg/mL each time.
As for VRC01 ARP60-62GGGHC (antibody), the neutralisation IC50 with CAAN.A2 (HIV-1) [10] was 3.23 µg/mL.
Regarding VRC01 G54YHC (antibody), the neutralisation IC50 with CAAN.A2 (HIV-1) [10] stood at 1.31 µg/mL.
As to VRC01 N6CDRH3 (antibody), in the assay with CAAN.A2 (HIV-1) [10], the neutralisation IC50 stood at 2.23 µg/mL.
For VRC07 N6CDRH3 (antibody), the neutralisation IC50 in the assay with CAAN.A2 (HIV-1) [10] came out at 2.18 µg/mL.
VRC08 N6CDRH3 (antibody) yielded a neutralisation IC50 with CAAN.A2 (HIV-1) [10] greater than 50 µg/mL.
Regarding VRC27 (antibody), the neutralisation IC50 with CAAN.A2 (HIV-1) [4] came out at 0.264 µg/mL. In addition, the Binding affinity relative to WT (%) with D167N (HIV-1) was 37%; with D279A (HIV-1), 7%; with D368A (HIV-1) it was 0%; with D457A (HIV-1), 19%; in the assay with D474A (HIV-1) it was 0%; with E370A (HIV-1) it was 2%. In addition, the Binding affinity relative to WT (%) with G366A (HIV-1) worked out at 3%; in the assay with G367A (HIV-1) it was 0%; with G471A (HIV-1), 131%; in the assay with G472A (HIV-1) it was 0%; in the assay with G473A (HIV-1), 6%; in the assay with I371A (HIV-1) it was 0%. In addition, the Binding affinity relative to WT (%) in the assay with I467A (HIV-1) stood at 27%; in the assay with K282A (HIV-1), 57%; with M373A (HIV-1), 23%; with M475A (HIV-1), 35%; with N197T (HIV-1), 28%; in the assay with N262A (HIV-1), 0%. In addition, the Binding affinity relative to WT (%) in the assay with N280A (HIV-1) is 0%; in the assay with N332A (HIV-1), 57%; in the assay with P369A (HIV-1), 38%; in the assay with R469A (HIV-1), 0%; with R476A (HIV-1), 37%; with S365A (HIV-1) it was 107%. For the same substance, the Binding affinity relative to WT (%) amounted to 15% in the assay with T283A (HIV-1), 15% with V372A (HIV-1) and 100% in [1].
Take VRC-PG04 (antibody): the Binding affinity relative to WT (%) was 42% in the assay with D167N (HIV-1); 247% in the assay with D279A (HIV-1); 12% with D368A (HIV-1); 0% in the assay with D457A (HIV-1); 0% in the assay with D474A (HIV-1); 20% with E370A (HIV-1). For the same substance, the Binding affinity relative to WT (%) with G366A (HIV-1) amounted to 17%; in the assay with G367A (HIV-1) it was 19%; with G471A (HIV-1), 64%; in the assay with G472A (HIV-1), 38%; with G473A (HIV-1) it was 34%; with I371A (HIV-1), 21%. The Binding affinity relative to WT (%) worked out at 40% with I467A (HIV-1); 12% with K282A (HIV-1); 44% with M373A (HIV-1); 90% with M475A (HIV-1); 39% with N197T (HIV-1); 14% with N262A (HIV-1). Moreover, the Binding affinity relative to WT (%) was found to be 12% with N280A (HIV-1); 31% in the assay with N332A (HIV-1); 44% with P369A (HIV-1); 6% with R469A (HIV-1); 84% with R476A (HIV-1); 34% in the assay with S365A (HIV-1). Besides, the Binding affinity relative to WT (%) with T283A (HIV-1) stood at 83%; with V372A (HIV-1), 15%.
For synagis (antibody), the Luminex reactivity (unit not given) in the assay with CentrB, centromere B stood at 2; in the assay with Histone, 3; in the assay with Jo1 antigen, 2.5; in the assay with RNP, ribonucleoprotein, 1.3; in [2] it was 3.3; in assay [3], 4.8. Moreover, the Luminex reactivity (unit not given) stood at 2 with Scl 70, scleroderma 70 and 2.3 with Sm, Smith antigen.
